Laboratory results taken from article PMC7884711, “Identification of efficient prokaryotic cell-penetrating peptides with applications in bacterial biotechnology” (Communications Biology, 2021).
Like-named read-outs stand apart in the source and are kept apart here. Where no end group is shown, it is not given here.

What was measured:
[1] = system: wild-type and tetA-harboring Methylomonas sp. DH-1; test: NiCl2 susceptibility, colony counts on NMS agar; type: cell-based; conditions: for Number of colonies, Wild-type cells: Methylomonas sp. DH-1, NMS agar; for Number of colonies, tetA-harboring cells: Methylomonas sp. DH-1 with genomic tetA, NMS agar
Procedure: (§1) To investigate the susceptibility of tetA-harboring E. coli and tetA-harboring Methylomonas sp. DH-1 to NiCl2, wild-type cells and the cells containing the tetA gene in the plasmid (E. coli) or in the genome (Methylomonas sp. DH-1) were incubated in an LB (E. coli) or NMS (Methylomonas sp. DH-1) agar plate with different concentrations of NiCl2 (0.5–8 mM). The optimal NiCl2 concentrations that were determined to counter select tetA-removed cells were 2 mM and 4 mM for E. coli and Methylomonas sp. DH-1, respectively.

[2] = system: wild-type and tetA plasmid-harboring E. coli; test: NiCl2 susceptibility, colony counts on LB agar; type: cell-based, Escherichia coli; conditions: for Number of colonies, Plasmid-harboring cells: E. coli with tetA plasmid; for Number of colonies, Plasmid-harboring cells / Number of colonies, Wild-type cells: LB agar, 37 °C 24 h; for Number of colonies, Wild-type cells: E. coli
From the text: Additionally, for the counterselection of plasmid-removed cells, we inserted the tetracycline resistance gene (tetA) into the plasmid to be removed. With the plasmid, the cells can survive in tetracycline media but not in Ni^2+ media. Conversely, without the plasmid, the cells cannot survive in tetracycline media but can survive in Ni^2+ media. The tetA gene induces host cells to accumulate twice as much Ni^2+ as normal cells, so tetA-containing cells are more susceptible to NiCl2 toxicity than normal cells. To determine a suitable Ni^2+ concentration for the selection of plasmid-removed cells, wild-type E. coli cells and tetracycline-resistant cells harboring the tetA gene in the plasmid were grown on Luria–Bertani (LB) agar plates containing 1–4 mM NiCl2. As shown in Supplementary Table 1, after incubation at 37 °C for 24 h, wild-type E. coli cells were capable of growing on LB agar plates containing up to 2.2 mM NiCl2. […] Therefore, we chose 2.0 mM NiCl2 as the selection concentration (Supplementary Table 1).
as §1

E. coli DH5α cells [3] = test: Penetration efficiency of TAMRA-labeled CPPs, electroporation-based method, flow cytometry; type: cell-based, Escherichia coli; conditions: for Penetration efficiency (TAMRA fluorescence in E. coli): library CPPs, electroporation, Tris buffer pH 7.5, 1 h, mean of n = 3–5; for Cell penetration efficiency (TAMRA fluorescence), Electrooration - Tris buffer / Cell penetration efficiency (TAMRA fluorescence), Electrooration - DW: electrocompetent E. coli DH5α, 5 μg TAMRA-CPP, electroporation 1.8 kV; for Cell penetration efficiency (TAMRA fluorescence), Electrooration - Tris buffer: 20 mM Tris-HCl pH 7.5, 1 h; for Cell penetration efficiency (TAMRA fluorescence), Electrooration - DW: distilled water, 1 h
From the text: (§2) (Fig. 2a). […] First, we prepared electrocompetent and chemically competent cells.

E. coli DH5α cells [4] = test: Inhibition of bacterial cell growth by CPPs (Max OD600 relative to control); type: cell-based, Escherichia coli; conditions: for Max OD (%) (Figure 3f): E. coli DH5α diluted 1/1000 in LB, 5 μg TAMRA-CPP (0.1 μg/μL), OD600 monitored 18 h, max OD of treated cells / max OD of control cells; for Growth rate (%): E. coli growth with CPP, relative to control; for Max OD (%): library CPPs, E. coli growth to stationary phase, relative to non-CPP-treated control, mean of n = 3
Procedure: E. coli DH5α cells were grown until OD600 = 1 at 37 °C with shaking at 200 rpm. […] Then, cell growth (OD600) was monitored for 18 h by using the Synergy^TM H1 hybrid multi-mode microplate reader (BioTek, Vermont, USA). As a control, we used E. coli cells that were not treated with CPPs.

E. coli DH5α cells [5] = test: Penetration efficiency of TAMRA-labeled CPPs, chemical (CaCl2) treatment method, flow cytometry; type: cell-based, Escherichia coli; conditions: for Cell penetration efficiency (TAMRA fluorescence), Chemical (CaCl2) method - Tris buffer / Cell penetration efficiency (TAMRA fluorescence), Chemical (CaCl2) method - DW: 50 mM CaCl2-treated E. coli DH5α, 5 μg TAMRA-CPP; for Cell penetration efficiency (TAMRA fluorescence), Chemical (CaCl2) method - Tris buffer: 20 mM Tris-Cl pH 7.5, 1 h; for Cell penetration efficiency (TAMRA fluorescence), Chemical (CaCl2) method - DW: 5 × 10^7 cells/50 μL, distilled water, 1 h; for Penetration efficiency (TAMRA FI): TAMRA fluorescence intensity in E. coli, library screen of 98 CPPs
From the text: as §2

[6] = class (Cytotoxic / Safe), cutoff of 50%

[Cl][Ni][Cl] [NiCl2]
Number of colonies, Wild-type cells ([1]; NiCl2 0.5 mM): 180 ± 6.42
Number of colonies, Wild-type cells ([1]; NiCl2 1 mM): 128 ± 10.50
Number of colonies, Wild-type cells ([1]; NiCl2 2 mM): 114 ± 4.04
Number of colonies, Wild-type cells ([1]; NiCl2 4 mM): 87 ± 16.09
Number of colonies, Wild-type cells ([1]; NiCl2 8 mM): 21 ± 5.03
Number of colonies, Wild-type cells ([1]; NiCl2 >8.0 mM): 0
Number of colonies, tetA-harboring cells ([1]; NiCl2 0.5 mM): 119 ± 6.42
Number of colonies, tetA-harboring cells ([1]; NiCl2 1 mM): 125 ± 4.40
Number of colonies, tetA-harboring cells ([1]; NiCl2 2 mM): 3 ± 2.08
Number of colonies, tetA-harboring cells ([1]; NiCl2 4 mM): 0
Number of colonies, tetA-harboring cells ([1]; NiCl2 8 mM): 0
Number of colonies, tetA-harboring cells ([1]; NiCl2 >8.0 mM): 0
Number of colonies, Plasmid-harboring cells ([2]; NiCl2 1.8 mM): 10.67 ± 2.27
Number of colonies, Plasmid-harboring cells ([2]; NiCl2 1.9 mM): 4 ± 1.15
Number of colonies, Plasmid-harboring cells ([2]; NiCl2 2 mM): 0.34 ± 0.19
Number of colonies, Plasmid-harboring cells ([2]; NiCl2 2.1 mM): 0
Number of colonies, Plasmid-harboring cells ([2]; NiCl2 2.2 mM): 0
Number of colonies, Plasmid-harboring cells ([2]; NiCl2 2.3 mM): 0
Number of colonies, Plasmid-harboring cells ([2]; NiCl2 >2.30 mM): 0
Number of colonies, Wild-type cells ([2]; NiCl2 1.8 mM): 2492 ± 94.27
Number of colonies, Wild-type cells ([2]; NiCl2 1.9 mM): 2065.33 ± 181.07
Number of colonies, Wild-type cells ([2]; NiCl2 2 mM): 1010.67 ± 121.71
Number of colonies, Wild-type cells ([2]; NiCl2 2.1 mM): 776 ± 73.11
Number of colonies, Wild-type cells ([2]; NiCl2 2.2 mM): 29 ± 4.40
Number of colonies, Wild-type cells ([2]; NiCl2 2.3 mM): 0.67 ± 0.19
Number of colonies, Wild-type cells ([2]; NiCl2 >2.30 mM): 0
NiCl2 concentration up to which wild-type E. coli cells were capable of growing ([2]; LB agar plates, 37 °C, 24 h): 2.2 mM
Growth of tetA-harboring E. coli cells on plates containing 2.0 mM NiCl2 ([2]; LB agar plates, 37 °C, 24 h, 2.0 mM NiCl2): not able to grow

CTP (GGRRARRRRRR; also: TAMRA label, site not given here) [CPP 96, TAMRA-labeled CPP of the 98-CPP library]
Penetration efficiency (TAMRA fluorescence in E. coli) (E. coli DH5α cells [3]): 3688.0 A.U.
Max OD (%) (Figure 3f) (E. coli DH5α cells [4]; replicate 1): 80.7143%
Max OD (%) (Figure 3f) (E. coli DH5α cells [4]; replicate 2): 88.7755%
Max OD (%) (Figure 3f) (E. coli DH5α cells [4]; replicate 3): 86.7347%
Growth rate (%) (E. coli DH5α cells [4]): 85.4082%
Anti-bacterial activity (E. coli DH5α cells [4]; [6]): Safe
Max OD (%) (E. coli DH5α cells [4]): 85.4%

Penetratin (RQIKIWFPNRRMKWKK; also: TAMRA label, site not given here) [CPP 17, TAMRA-labeled CPP of the 98-CPP library, one of five used to evaluate delivery methods]
Cell penetration efficiency (TAMRA fluorescence), Electrooration - Tris buffer (E. coli DH5α cells [3]; replicate 1): 794.592 A.U.
Cell penetration efficiency (TAMRA fluorescence), Electrooration - Tris buffer (E. coli DH5α cells [3]; replicate 2): 585.819 A.U.
Cell penetration efficiency (TAMRA fluorescence), Electrooration - Tris buffer (E. coli DH5α cells [3]; replicate 3): 1028.54 A.U.
Cell penetration efficiency (TAMRA fluorescence), Electrooration - Tris buffer (E. coli DH5α cells [3]; replicate 4): 181.291 A.U.
Cell penetration efficiency (TAMRA fluorescence), Electrooration - DW (E. coli DH5α cells [3]; replicate 1): 634.038 A.U.
Cell penetration efficiency (TAMRA fluorescence), Electrooration - DW (E. coli DH5α cells [3]; replicate 2): 587.6 A.U.
Cell penetration efficiency (TAMRA fluorescence), Electrooration - DW (E. coli DH5α cells [3]; replicate 3): 471.96 A.U.
Anti-bacterial activity (E. coli DH5α cells [4]): Safe
Growth rate (%) (E. coli DH5α cells [4]): 56.8825%
Cell penetration efficiency (TAMRA fluorescence), Chemical (CaCl2) method - Tris buffer (E. coli DH5α cells [5]; replicate 1): 29.4497 A.U.
Cell penetration efficiency (TAMRA fluorescence), Chemical (CaCl2) method - Tris buffer (E. coli DH5α cells [5]; replicate 2): 24.3955 A.U.
Cell penetration efficiency (TAMRA fluorescence), Chemical (CaCl2) method - Tris buffer (E. coli DH5α cells [5]; replicate 3): 28.6202 A.U.
Cell penetration efficiency (TAMRA fluorescence), Chemical (CaCl2) method - DW (E. coli DH5α cells [5]; replicate 1): 134.244 A.U.
Cell penetration efficiency (TAMRA fluorescence), Chemical (CaCl2) method - DW (E. coli DH5α cells [5]; replicate 2): 173.67 A.U.
Cell penetration efficiency (TAMRA fluorescence), Chemical (CaCl2) method - DW (E. coli DH5α cells [5]; replicate 3): 170.238 A.U.
Penetration efficiency (TAMRA FI) (E. coli DH5α cells [5]): 647.56

Tat48-57 (GRKKRRQRRR; also: TAMRA label, site not given here) [CPP 70, TAMRA-labeled CPP of the 98-CPP library]
Penetration efficiency (TAMRA fluorescence in E. coli) (E. coli DH5α cells [3]): 4043.3 A.U.
Max OD (%) (Figure 3f) (E. coli DH5α cells [4]; replicate 1): 81.1065%
Max OD (%) (Figure 3f) (E. coli DH5α cells [4]; replicate 2): 82.6722%
Max OD (%) (Figure 3f) (E. coli DH5α cells [4]; replicate 3): 78.7056%
Growth rate (%) (E. coli DH5α cells [4]): 80.8281%
Anti-bacterial activity (E. coli DH5α cells [4]; [6]): Safe
Max OD (%) (E. coli DH5α cells [4]): 80.8%

Tat49-57 (RKKRRQRRR; also: TAMRA label, site not given here) [CPP 45, TAMRA-labeled CPP of the 98-CPP library]
Penetration efficiency (TAMRA fluorescence in E. coli) (E. coli DH5α cells [3]): 2837.5 A.U.
Max OD (%) (Figure 3f) (E. coli DH5α cells [4]; replicate 1): 75.4515%
Max OD (%) (Figure 3f) (E. coli DH5α cells [4]; replicate 2): 62.3077%
Max OD (%) (Figure 3f) (E. coli DH5α cells [4]; replicate 3): 70.8361%
Growth rate (%) (E. coli DH5α cells [4]): 69.5318%
Anti-bacterial activity (E. coli DH5α cells [4]; [6]): Safe
Max OD (%) (E. coli DH5α cells [4]): 69.5%

Tat (GRKKRRQRRRPPQRKC; also: TAMRA label, site not given here) [CPP 67, TAMRA-labeled CPP of the 98-CPP library]
Penetration efficiency (TAMRA fluorescence in E. coli) (E. coli DH5α cells [3]): 2821.8 A.U.
Max OD (%) (Figure 3f) (E. coli DH5α cells [4]; replicate 1): 60.9603%
Max OD (%) (Figure 3f) (E. coli DH5α cells [4]; replicate 2): 54.071%
Max OD (%) (Figure 3f) (E. coli DH5α cells [4]; replicate 3): 61.2735%
Growth rate (%) (E. coli DH5α cells [4]): 58.7683%
Anti-bacterial activity (E. coli DH5α cells [4]; [6]): Safe
Max OD (%) (E. coli DH5α cells [4]): 58.8%

TatsMTS (TMG) (GRKKRRQRRRMVSAL; also: TAMRA label, site not given here) [CPP 71, TAMRA-labeled CPP of the 98-CPP library]
Penetration efficiency (TAMRA fluorescence in E. coli) (E. coli DH5α cells [3]): 3266.3 A.U.
Max OD (%) (Figure 3f) (E. coli DH5α cells [4]; replicate 1): 73.904%
Max OD (%) (Figure 3f) (E. coli DH5α cells [4]; replicate 2): 87.9958%
Max OD (%) (Figure 3f) (E. coli DH5α cells [4]; replicate 3): 80.3758%
Growth rate (%) (E. coli DH5α cells [4]): 80.7585%
Anti-bacterial activity (E. coli DH5α cells [4]; [6]): Safe
Max OD (%) (E. coli DH5α cells [4]): 80.8%

rrrrrrrrrcqcrrkn [CPP 80]
Max OD (%) (Figure 3f) (E. coli DH5α cells [4]; replicate 1): 65.3033%
Max OD (%) (Figure 3f) (E. coli DH5α cells [4]; replicate 2): 60%
Max OD (%) (Figure 3f) (E. coli DH5α cells [4]; replicate 3): 55.5286%
Growth rate (%) (E. coli DH5α cells [4]): 60.2773%
Anti-bacterial activity (E. coli DH5α cells [4]; [6]): Safe
Penetration efficiency (TAMRA FI) (E. coli DH5α cells [5]): 1432.29
